Tests used:
[1] = target: M44-modified H NTAA target peptides; test: encoding assay; P2 V
[2] = target: M44-modified N NTAA target peptides; test: encoding assay; P2 T
[3] = target: M44-modified A NTAA target peptides (M44-A-P2-peptide); test: encoding assay; P2 T
[4] = target: M44-modified M NTAA target peptides; test: encoding assay; P2 T
[5] = target: M44-modified P NTAA target peptides; test: encoding assay; P2 T;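 also: fraction of recording tags encoded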
[6] = target: M44-modified Q NTAA target peptides; test: encoding assay; P2 T
[7] = target: M44-modified F NTAA target peptides (M44-F-P2-peptide); test: encoding assay; P2 T;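 also: fraction of recording tags encoded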
[8] = target: M44-modified V NTAA target peptides; test: encoding assay; P2 E;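 also: fraction of recording tags encoded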
[9] = target: M44-modified N NTAA target peptides; test: encoding assay; P2 E
[10] = target: M44-modified L NTAA target peptides (M44-L-P2-peptide); test: encoding assay; P2 E;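 also: fraction of recording tags encoded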
[11] = target: M44-modified A NTAA target peptides (M44-A-P2-peptide); test: encoding assay; P2 E
[12] = target: M44-modified I NTAA target peptides (M44-I-P2-peptide); test: encoding assay; P2 E
[13] = target: M44-modified M NTAA target peptides; test: encoding assay; P2 E
[14] = target: M44-modified D NTAA target peptides; test: encoding assay; P2 E;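 also: fraction of recording tags encoded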
[15] = target: M44-modified P NTAA target peptides; test: encoding assay; P2 E;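 also: fraction of recording tags encoded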
[16] = target: M44-modified S NTAA target peptides; test: encoding assay; P2 E
[17] = target: M44-modified Q NTAA target peptides; test: encoding assay; P2 E
[18] = target: M44-modified W NTAA target peptides; test: encoding assay; P2 E;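 also: fraction of recording tags encoded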
[19] = target: M44-modified F NTAA target peptides (M44-F-P2-peptide); test: encoding assay; P2 E;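 also: fraction of recording tags encoded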
[20] = target: M44-modified T NTAA target peptides; test: encoding assay; P2 E
[21] = target: M44-modified E NTAA target peptides; test: encoding assay; P2 E;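 also: fraction of recording tags encoded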
[22] = target: M44-modified H NTAA target peptides; test: encoding assay; P2 E
[23] = target: M44-modified Y NTAA target peptides (M44-Y-P2-peptide); test: encoding assay; P2 E;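 also: fraction of recording tags encoded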
[24] = target: M44-modified N NTAA target peptides; test: encoding assay; P2 P
[25] = target: M44-modified L NTAA target peptides (M44-L-P2-peptide); test: encoding assay; P2 P;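 also: fraction of recording tags encoded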
[26] = target: M44-modified A NTAA target peptides (M44-A-P2-peptide); test: encoding assay; P2 P
[27] = target: M44-modified I NTAA target peptides (M44-I-P2-peptide); test: encoding assay; P2 P
[28] = target: M44-modified M NTAA target peptides; test: encoding assay; P2 P
[29] = target: M44-modified D NTAA target peptides; test: encoding assay; P2 P;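 also: fraction of recording tags encoded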
[30] = target: M44-modified S NTAA target peptides; test: encoding assay; P2 P
[31] = target: M44-modified Q NTAA target peptides; test: encoding assay; P2 P
[32] = target: M44-modified F NTAA target peptides (M44-F-P2-peptide); test: encoding assay; P2 P;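 also: fraction of recording tags encoded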
[33] = target: M44-modified E NTAA target peptides; test: encoding assay; P2 P;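 also: fraction of recording tags encoded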
[34] = target: M44-modified H NTAA target peptides; test: encoding assay; P2 P
[35] = target: M44-modified Y NTAA target peptides (M44-Y-P2-peptide); test: encoding assay; P2 P;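 also: fraction of recording tags encoded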
[36] = target: M44-modified V NTAA target peptides; test: encoding assay; P2 I;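 also: fraction of recording tags encoded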
[37] = target: M44-modified N NTAA target peptides; test: encoding assay; P2 I
[38] = target: M44-modified L NTAA target peptides (M44-L-P2-peptide); test: encoding assay; P2 I;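 also: fraction of recording tags encoded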
[39] = target: M44-modified A NTAA target peptides (M44-A-P2-peptide); test: encoding assay; P2 I
[40] = target: M44-modified I NTAA target peptides (M44-I-P2-peptide); test: encoding assay; P2 I
[41] = target: M44-modified M NTAA target peptides; test: encoding assay; P2 I
[42] = target: M44-modified D NTAA target peptides; test: encoding assay; P2 I;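 also: fraction of recording tags encoded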
[43] = target: M44-modified S NTAA target peptides; test: encoding assay; P2 I
[44] = target: M44-modified Q NTAA target peptides; test: encoding assay; P2 I
[45] = target: M44-modified W NTAA target peptides; test: encoding assay; P2 I;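 also: fraction of recording tags encoded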
[46] = target: M44-modified F NTAA target peptides (M44-F-P2-peptide); test: encoding assay; P2 I;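 also: fraction of recording tags encoded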
[47] = target: M44-modified T NTAA target peptides; test: encoding assay; P2 I
[48] = target: M44-modified E NTAA target peptides; test: encoding assay; P2 I;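 also: fraction of recording tags encoded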
[49] = target: M44-modified G NTAA target peptides (M44-G-P2-peptide); test: encoding assay; P2 I;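 also: fraction of recording tags encoded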
[50] = target: M44-modified H NTAA target peptides; test: encoding assay; P2 I
[51] = target: M44-modified Y NTAA target peptides (M44-Y-P2-peptide); test: encoding assay; P2 I;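 also: fraction of recording tags encoded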

B1: engineered M44-L binder (SEQ ID NO: 31) (designed binder, not shown: small tags and cut ends; large carriers)
chain: QDSTQNLIPAPPLISVPLQPGFWTERFQGRWFLVGFAGNAVQKERQSRLTMQSLILELQEDNSYNITAINVRGQGCRYIISTLVPSSRPGQFTLGNIHSYPQIQSLDVQVADTDYDQFAMVFLQGTSENKQYFEVALAGRTKGLSDELKERFVSFAKSLGLKDNNIVFSVPTDQCIDN
encoding yield [1]: 0.04 | encoding yield [2]: 0.02 | encoding yield [3]: 0.03 | encoding yield [4]: 0.01 | encoding yield [5]: 0.02 | encoding yield [6]: 0.02 | encoding yield [7]: 0.05 | encoding yield [8]: 0.02 | encoding yield [9]: 0.01 | encoding yield [10]: 0.03 | encoding yield [11]: 0.03 | encoding yield [12]: 0.01 | encoding yield [13]: 0.01 | encoding yield [14]: 0.02 | encoding yield [15]: 0.03 | encoding yield [16]: 0.03 | encoding yield [17]: 0.02 | encoding yield [18]: 0.03 | encoding yield [19]: 0.01 | encoding yield [20]: 0.02 | encoding yield [21]: 0.02 | encoding yield [22]: 0.02 | encoding yield [23]: 0.05 | encoding yield [24]: 0.02 | encoding yield [25]: 0.07 | encoding yield [26]: 0.03 | encoding yield [27]: 0.06 | encoding yield [28]: 0.02 | encoding yield [29]: 0.02 | encoding yield [30]: 0.04 | encoding yield [31]: 0.02 | encoding yield [32]: 0.08 | encoding yield [33]: 0.02 | encoding yield [34]: 0.03 | encoding yield [35]: 0.03 | encoding yield [36]: 0.06 | encoding yield [37]: 0.05 | encoding yield [38]: 0.15 | encoding yield [39]: 0.03 | encoding yield [40]: 0.14 | encoding yield [41]: 0.03 | encoding yield [42]: 0.03 | encoding yield [43]: 0.03 | encoding yield [44]: 0.01 | encoding yield [45]: 0.05 | encoding yield [46]: 0.05 | encoding yield [47]: 0.04 | encoding yield [48]: 0.03 | encoding yield [49]: 0.02 | encoding yield [50]: 0.03 | encoding yield [51]: 0.07

B2: engineered M44-L binder (SEQ ID NO: 21) (designed binder, not shown: small tags and cut ends; large carriers)
chain: QVSVQPNFQQDKFLGRWFYAGHASNSSWYREKVAALSMAKLVVAPATDGGLNATETFLRKNQCETITSLLQPAGSLGSYSSRSPHGGSTWSTSVVETDYDQYALLYLQGSKGPGEDFRGAILASRTQTPRAELKEKFTAFSKAQGFTEDTIVFLPQTDKCMTEQ
encoding yield [1]: 0.01 | encoding yield [2]: 0.01 | encoding yield [3]: 0.01 | encoding yield [4]: 0 | encoding yield [5]: 0.01 | encoding yield [6]: 0.01 | encoding yield [7]: 0.02 | encoding yield [8]: 0.01 | encoding yield [9]: 0.01 | encoding yield [10]: 0.01 | encoding yield [11]: 0.01 | encoding yield [12]: 0 | encoding yield [13]: 0 | encoding yield [14]: 0.01 | encoding yield [15]: 0.01 | encoding yield [16]: 0.01 | encoding yield [17]: 0.01 | encoding yield [18]: 0.01 | encoding yield [19]: 0 | encoding yield [20]: 0.01 | encoding yield [21]: 0.01 | encoding yield [22]: 0.01 | encoding yield [23]: 0.02 | encoding yield [24]: 0.01 | encoding yield [25]: 0.09 | encoding yield [26]: 0.01 | encoding yield [27]: 0.01 | encoding yield [28]: 0.04 | encoding yield [29]: 0.01 | encoding yield [30]: 0.02 | encoding yield [31]: 0.01 | encoding yield [32]: 0.09 | encoding yield [33]: 0.01 | encoding yield [34]: 0.01 | encoding yield [35]: 0.02 | encoding yield [36]: 0.03 | encoding yield [37]: 0.01 | encoding yield [38]: 0.06 | encoding yield [39]: 0.01 | encoding yield [40]: 0.13 | encoding yield [41]: 0.03 | encoding yield [42]: 0.01 | encoding yield [43]: 0.02 | encoding yield [44]: 0.01 | encoding yield [45]: 0.02 | encoding yield [46]: 0.01 | encoding yield [47]: 0.01 | encoding yield [48]: 0.01 | encoding yield [49]: 0.02 | encoding yield [50]: 0.01 | encoding yield [51]: 0.03
